The test system of one assay is EBI-3 KO mice. Nature of the assay: cold stimulation experiment at 4° C. after rmIL-27 treatment of EBI-3 KO mice. Particulars: rmIL-27 100 μg/kg intraperitoneally for 7 consecutive days, then cold stimulation at 4° C. The assay is classed as in vivo, mouse. How it is done:
Cold stimulation experiments were performed in a temperature controlled cold room. Mice were placed individually in individual cages (without bedding) at 4° C. The mice had free access to food and water. Rectal core body temperatures were recorded every 2 hours using a digital thermometer and a rectal thermocouple probe (TH-212, HICHANCE, China). If the core body temperature fell below 20° C., the individual mice were euthanized and scored as events for survival analysis.
8-week-old WT mice were fed with HFD for 32 weeks and randomly divided into 2 groups. The mice were injected intraperitoneally with rmIL-27 (100 μg/kg) or PBS for 15 consecutive days, and then, metabolic analysis was performed. 12-month-old EBI-3 KO mice were randomly divided into 2 groups, and injected intraperitoneally with rmIL-27 (100 μg/kg) or PBS for 7 consecutive days. The mice were then subjected to a cold stimulation experiment at 4° C.
As for FIG. 7A-FIG. 7C: 8-week-old Il27ra^f/f and Ucp1-Cre Il27ra^f/f mice were fed with HFD for 10 weeks. After HFD treatment for 10 weeks, GTT (FIG. 7A) and ITT (FIG. 7B) (n=5-6) tests were performed, and adipose tissue and livers were collected and weighed (FIG. 7C, n=5-6). […] Expression of UCP1 was detected by immunoblot. […] Expression of UCP1 or PPARα was analyzed by an immunoblot. […] A band density was quantified and normalized with ImageJ. […]

In a further assay the test system is primary beige adipocytes. Put plainly: primary beige adipocytes treated with IL-27 in vitro, immunoblot analysis. The class given is cell-based, mouse. Particulars: rmIL-27 100 ng/ml. How it is done: A whole cell lysate or tissue lysate was extracted using an RIPA lysis buffer (Beyotime, China) supplemented with a complete protease inhibitor (Roche) and a phosphatase inhibitor Cocktail 2 (P5726, Sigma), and a supernatant was used for subsequent analysis. Proteins were diluted in a Loading dye (BL502A, Bio-sharp), heated at 95° C. for 10 min, and separated on 4-12% polyacrylamide gel. The proteins were transferred to polyvinylidene fluoride membranes and western blot experiments were performed with the commercial antibodies and methods-reagents mentioned in the drawing.
Inguinal subcutaneous adipose tissue was minced and digested at 37° C. for 45 min in PBS containing collagenase II (1 mg/ml), and a tissue suspension was filtered by a 100 μm cell filter and centrifuged at 600 g for 5 min, such that a stromal vascular fraction (SVF) was granulated. After granulation, the product was further filtered by a 40 μm cell filter and placed on a collagen-coated plate. After overnight culturing, a supernatant containing non-adherent cells was removed. Precursor adipocytes were grown in DMEM containing 10% FBS and insulin (5 μg/ml) for fusion. The product was treated for 2 days with dexamethasone (1 μM), 3-isobutyl-1-methylxanthine (IBMX, 0.5 mM), insulin (5 μg/ml), indomethacin (125 nM) and rosiglitazone (1 μM) to induce differentiation of the fused cells, and then independently treated for another 5 days with insulin (5 μg/ml) and triiodothyronine (T3, 1 nM). On day 7, the cells were pretreated overnight with and without IL-27 (100 ng/ml) and then treated with isoproterenol (10 μM) or forskolin (10 μM) for 4-6 hours. IL-27 (100 ng/ml) was added for treatment for 0-120 min on day 7 for protein phosphorylation analysis, or for 12-24 h for protein expression level detection. For signal inhibition experiments, either the STAT3 inhibitor (C188-9, 10 μM) or the p38 MAPK inhibitor (SB203580, 10 μM) was added to a medium 0.5 h prior to and during IL-27 treatment.
FIG. 3A-FIG. 3M show promotion of heat generation by IL-27. As for FIG. 3A: primary beige adipocytes were generated in vitro from an SVF of WT SCW and then treated with rmIL-27 (100 ng/ml) or PBS for 24 hours. Cells were lysed and a protein extract was used for immunoblot analysis. As for FIG. 3B: immunoblot analysis of phosphorylation of the protein in the WT primary beige adipocyte extract treated with the rmIL-27 (100 ng/ml) for a specified time was shown. As for FIG. 3C: the primary beige adipocytes derived from WT SCW were generated in vitro. The STAT3 inhibitor (C188-9, 10 μM) or p38 MAPK inhibitor (SB203580, 10 μM) was added to a medium 0.5 hours prior to culturing and in duration of rmIL-27 treatment (100 ng/ml for 12 hours). Cell lysis and the representative immunoblot of the protein extract were shown. As for FIG. 3D-FIG. 3J: WT mice were fed with HFD for 32 weeks and then injected intraperitoneally. Every other day, rmIL-27 (100 μg/kg) or PBS was injected for 15 days. As for FIG. 3D: body weight was recorded at specified time points (n=8). As for FIG. 3E: after rmIL-27 treatment for 15 days, adipose tissue was collected and weighed (n=6-8) for a glucose tolerance test (FIG. 3F, n=8) and an insulin tolerance test (FIG. 3G, n=8). As for FIG. 3H: the mice were fasted overnight and then injected intraperitoneally with 0.75 U/kg insulin (15 min). Immunoblot analysis of pAKT (pSer473) in epididymal fat was performed. As for FIG. 3I: after rmIL-27 treatment for 15 days, oil-red O liver tissue staining was performed, with the scale=50 μm. As for FIG. 3J-FIG. 3M: UCP1-KO mice were fed with HFD for 20 weeks and then injected intraperitoneally with rmIL-27 (100 μg/kg) or PBS every other day for 15 days. As for FIG. 3J: body weight was recorded at specified time points (n=6). As for FIG. 3K: adipose tissue and livers were collected and weighed after rmIL-27 treatment for 15 days (n=6), and GTT (FIG. 3L, n=6) and ITT (FIG. 3M, n=4) tests were performed after rmIL-27 treatment for 15 days. […]
(In general: Immunoblotting shows a protein as a band on a membrane.)

Where [1] appears, read: 0-120 min, immunoblot (FIG. 3B).

Entries after “also recorded” stand apart in the source; their conditions may differ.

B1: IL-27: Recombinant mouse IL-27 (EBI-3/p28 heterodimer cytokine), purchased from Biolegend (577408) (protein, UniProt O35228 19-228; Q8K3I6 29-234, looked up)
Interleukin-27 subunit beta: YTETALVALSQPRVQCHASRYPVAVDCSWTPLQAPNSTRSTSFIATYRLGVATQQQSQPCLQRSPQASRCTIPDVHLFSTVPYMLNVTAVHPGGASSSLLAFVAERIIKPDPPEGVRLRTAGQRLQVLWHPPASWPFPDIFSLKYRLRYRRRGASHFRQVGPIEATTFTLRNSKPHAKYCIQVSAQDLTDYGKPSDWSLPGQVESAPHKP
Interleukin-27 subunit alpha: FPTDPLSLQELRREFTVSLYLARKLLSEVQGYVHSFAESRLPGVNLDLLPLGYHLPNVSLTFQAWHHLSDSERLCFLATTLRPFPAMLGGLGTQGTWTSSEREQLWAMRLDLRDLHRHLRFQVLAAGFKCSKEEEDKEEEEEEEEEEKKLPLGALGGPNQVSSQVSWPQLLYTYQLLHSLELVLSRAVRDLLLLSLPRRPGSAWDS
Take B1: the UCP1-mediated heat generation result in the assay on EBI-3 KO mice was “improved”. Besides, the “body temperature / hypothermia in cold stimulation” value in the assay with EBI-3 KO mice (rectal temperature) is reported as “avoided low temperatures; also recorded: reverse hypothermia”. Also, in the assay on primary beige adipocytes (setting [1]), the “Phosphorylation of p38 MAPK” value is on record as “significantly increased”; the pSTAT3 result is “only transiently induced and rapidly regressed”. In addition, in the assay with primary beige adipocytes (24 hours, immunoblot (FIG. 3A)), the “expression of UCP1” value was “significantly increased”, the “expression of peroxisome proliferator-activated receptor α (PPARα)” value is on record as “up-regulated” and the “expression of peroxisome proliferator-activated receptor γ co-activator 1α (PGC-1α)” value is given as “up-regulated”. Also, the “activation of ATF2” value in the assay on primary beige adipocytes (immunoblot (FIG. 3A-3C)) was “enhanced”.

Values taken from patent publication US20230391843A1, “COMPOSITION AND METHOD FOR CONTROLLING HEAT GENERATION WITHIN ORGANISM, AND USE” (GUANGDONG JIANTEBO BIOTECHNOLOGY CO., LTD., priority 2021, published 2023).
